The values that follow come from US20250382376A1 (FUDAN UNIVERSITY, published 2025).

Experiment [1] addresses T1, CD73 on the surface of human cells (human, UniProt P21589 27-549).
T1 construct: whole, on cells; The cell line of each value is named under assay or readout; also called CD73 on the surface of tumor cells; CD73 enzyme on the surface of MDA-MB-231 cells
T1 sequence (looked up): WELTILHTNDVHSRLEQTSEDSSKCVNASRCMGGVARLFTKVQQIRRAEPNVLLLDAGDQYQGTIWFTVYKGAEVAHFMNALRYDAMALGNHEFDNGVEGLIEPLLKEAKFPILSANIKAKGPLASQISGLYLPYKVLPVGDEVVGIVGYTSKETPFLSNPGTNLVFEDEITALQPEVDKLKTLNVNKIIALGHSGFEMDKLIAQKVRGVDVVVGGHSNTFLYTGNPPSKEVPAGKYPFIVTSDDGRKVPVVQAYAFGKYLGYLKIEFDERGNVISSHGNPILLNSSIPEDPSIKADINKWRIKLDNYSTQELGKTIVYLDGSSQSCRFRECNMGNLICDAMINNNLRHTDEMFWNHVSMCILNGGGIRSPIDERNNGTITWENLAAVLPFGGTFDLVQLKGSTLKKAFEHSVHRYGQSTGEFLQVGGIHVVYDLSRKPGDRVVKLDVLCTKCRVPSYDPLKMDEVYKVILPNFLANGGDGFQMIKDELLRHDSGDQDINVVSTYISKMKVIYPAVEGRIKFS
As to the kind of experiment: Flow cytometry on NCI-H1373 cells, PE-labelled secondary antibody [panel B]. On the procedure: (§1) 100 μL of the test antibodies diluted from 10 μg/mL to 0.016 μg/mL in a 5-fold gradient were used as the primary antibodies, and were mixed with 1×10⁵ tumor cells suspended in 100 μL RPMI-1640 serum-free medium to make a final concentration of 5 μg/mL diluted to 0.008 μg/mL, and then incubated at 4° C. for 1 h. The cells were washed twice with PBS to remove unbound primary antibodies, and then the target cells were incubated with 200 μLPE-labeled secondary antibody at 2 μg/mL at 4° C. for 30 min. The cells were washed twice with PBS to remove unbound secondary antibodies, and finally the cells were resuspended in 200 μL PBS. The binding affinity of the test antibodies to CD73 on the surface of the corresponding cells was measured by flow cytometry.
For orientation: A flow cytometer gives signals particle by particle.

Experiment [2] concerns the target T1, CD73 on the surface of human cells. As to the kind of experiment: Flow cytometry on SW1573 cells, PE-labelled secondary antibody [panel A]. As for the experimental part:
as §1

The target in experiment [3] is T2, extracellular domain of human CD73 protein, C-terminus polyhistidine-tagged (human, UniProt P21589 27-547).
T2 construct: also the immunogen; also called CD73-ECD; human CD73-ECD
T2 sequence: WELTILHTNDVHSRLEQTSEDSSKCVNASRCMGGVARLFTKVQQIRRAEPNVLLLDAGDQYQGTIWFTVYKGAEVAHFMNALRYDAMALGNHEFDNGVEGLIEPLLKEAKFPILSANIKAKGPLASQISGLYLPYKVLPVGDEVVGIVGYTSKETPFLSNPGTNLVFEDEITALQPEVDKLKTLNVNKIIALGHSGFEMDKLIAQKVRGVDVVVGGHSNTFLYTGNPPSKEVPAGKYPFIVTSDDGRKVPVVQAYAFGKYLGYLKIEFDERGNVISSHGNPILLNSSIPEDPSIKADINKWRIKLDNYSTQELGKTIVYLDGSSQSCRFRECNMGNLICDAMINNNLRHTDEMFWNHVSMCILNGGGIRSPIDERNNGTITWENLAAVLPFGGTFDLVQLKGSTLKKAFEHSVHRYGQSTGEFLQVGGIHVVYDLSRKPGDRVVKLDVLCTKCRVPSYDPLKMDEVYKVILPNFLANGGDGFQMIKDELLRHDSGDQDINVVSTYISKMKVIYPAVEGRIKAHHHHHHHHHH
As to the kind of experiment: ELISA, coated CD73-ECD, method of Example 3. On the procedure:
(§2) The CD73 protein extracellular region (CD73-ECD) was diluted to 1 μg/mL using the coating solution, and an ELISA plate was coated at 100 μL/well at 4° C. overnight. Excess antigens were washed away, and the plate was blocked with 1% BSA at room temperature for 2 hours. Then, 5-fold gradient dilutions of each monoclonal antibody were added at 100 μL/well and incubated at room temperature for 1 hour. Unbound antibodies were washed away, and an appropriate concentration of Staphylococcal protein A labeled with horseradish peroxidase was added at 100 μL/well and incubated at room temperature for 0.5 hours. Unbound secondary antibodies were washed away, and TMB color development solution was added to react for about 15 minutes. 1M HCL was added at 50 µL/well to terminate the color development reaction, and then the absorbance was measured at 450 nm and the data was analyzed.
Based on the above mutants, 5-E11ASCS was designed and prepared, and the CD73 antigen ELISA binding affinity test was performed according to the method of Example 3.

For experiment [4], the target named is T2, extracellular domain of human CD73 …. As to the kind of experiment: ForteBio OCTET R2 (the filing calls it SPR); antibody on Protein A sensor, CD73-ECD in solution; traces labelled 100, 50, 25, 12.5, 6.25. On the procedure: (§3) Surface plasmon resonance (SPR) assay: Protein A sensor was used to immobilize the antibodies, with an immobilization height of about 1.5 nM. […] Affinity detection: equilibrium for 60 s, binding for 180 s, dissociation for 180 s, at a detection temperature of 25° C. Kinetic characterization analysis was performed using the ForteBio OCTET R2 system.
A general note: BLI is a label-free optical method that tracks binding on a fibre tip over time.

Experiment [5] shares this target. Kind of experiment: ELISA on CD73-ECD, 4 µL supernatant of antibody expression, first of two readings; PBS 0.19, 0.18. As for the experimental part: as §2
CD73 antigen ELISA binding affinity test was performed according to the method of Example 3.
(In general: An ELISA detects its analyte on a solid surface through an enzyme-linked reagent.)

The target is the same in experiment [6]. As to the kind of experiment: SPR as the filing names it (ForteBio OCTET R2); antibody on Protein A sensor, CD73-ECD in solution, 25 C. On the procedure: as §3
The target of experiment [7] is T3, human recombinant CD73 enzyme (CD73 extracellular region) (human, UniProt P21589 27-549).
T3 sequence (looked up): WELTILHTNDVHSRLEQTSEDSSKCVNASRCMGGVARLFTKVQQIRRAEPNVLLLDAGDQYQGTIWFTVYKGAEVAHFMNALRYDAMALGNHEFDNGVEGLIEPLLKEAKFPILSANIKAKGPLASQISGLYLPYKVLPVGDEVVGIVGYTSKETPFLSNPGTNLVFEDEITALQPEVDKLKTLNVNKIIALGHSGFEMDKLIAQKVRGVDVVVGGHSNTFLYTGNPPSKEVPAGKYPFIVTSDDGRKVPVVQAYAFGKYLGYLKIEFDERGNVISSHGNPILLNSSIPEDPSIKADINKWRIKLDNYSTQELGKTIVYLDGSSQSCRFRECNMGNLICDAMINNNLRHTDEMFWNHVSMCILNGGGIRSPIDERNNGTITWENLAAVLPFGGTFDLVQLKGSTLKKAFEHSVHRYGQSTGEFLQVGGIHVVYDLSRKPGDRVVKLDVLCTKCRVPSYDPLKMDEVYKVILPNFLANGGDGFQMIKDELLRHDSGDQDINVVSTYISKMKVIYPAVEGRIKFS
Kind of experiment: cell-based or functional assay.

The target in experiment [8] is T1, CD73 on the surface of human cells. As to the kind of experiment: cell-based or functional assay.
Experiment [9] shares this target. Kind of experiment: Flow cytometry on NCI-H1299 cells. On the procedure:
as §1
The binding affinity of the humanized antibodies to NCI-H1299 cells was detected according to the method for determining the binding affinity of CD73 on the surface of tumor cells in Example 5.

B1: chimeric nanobody 5-E11 (Fc fusion)
VHH: ALQLVESGGGLVQPGGSLRLSCEVSGFTLDYYNIGWFRQAPGKEREGVSCSSNSGGSTYYADSVKGRFTISRDNAKNTVYLQMNSLKPEDTGVYYCAAYRGWHPSLDARVYDYWGQGTEVTVSS
notes: Human-alpaca chimeric antibody (VHH on hIgG1 Fc); Only the VHH is tied to the tested molecule; also called original antibody 5-E11
For orientation: EC50 means the concentration that produces a half-maximal response. For orientation: koff means a measure of how fast the partners let go of each other. What is called kon is the second-order rate constant of association. A low value points to slow association. In general, Kd refers to a measure of binding affinity in units of concentration. Consider B1, for which the “Max MFI” value in experiment [1] amounted to 191000 MFI. For the same molecule, the “Max MFI” value in experiment [2] was 69600 MFI. In experiment [3], the concentration for a half-maximal effect (EC50) stood at 0.05 µg/mL. In [4], this molecule displayed a koff of 0.000318 s⁻¹ and a kon of 385000 M⁻¹ s⁻¹. Further, the “ELISA reading (not named on the sheet)” value in [5] was determined as 4.23. The Kd in [6] turned out to be 0.826 nM. The “IC50, inhibition of AMP hydrolysis by recombinant human CD73 enzyme (CellTiter-Glo)” value (“IC50, inhibition … (CellTiter-Glo)” below) in [7] is 0.00947 µg/mL. For the same molecule, in experiment [8], the “EC50, reversal of the AMP inhibition of human T lymphocyte proliferation” value came to 0.0008 µg/mL and the “IC50, inhibition of AMP hydrolysis by CD73 on MDA-MB-231 cells” value (from here on “IC50, inhibition … on MDA-MB-231 cells”) turned out to be 0.088 µg/mL.

B2: chimeric nanobody 3-D7 (Fc fusion)
VHH: QRQLVESGGGLVQPGGSLRLSCAASGFLLDYYVIGWFRQAPGKEREGVSCISGSDRSTYYADSVKGRFTISRDNAKNTVYLQMNSLKPEDTAVYFCAADPSPVTVQAMCLPRFPVPYWGQGTQVTVST
notes: Human-alpaca chimeric antibody (VHH on hIgG1 Fc); Only the VHH is tied to the tested molecule; 37-39 exist for 3-D7-FC1/FC2/FC3; also called original antibody 3-D7
In the case of B2, the “Max MFI” value in experiment [1] came to 200000 MFI. The “Max MFI” value in experiment [2] came out at 71000 MFI. In experiment [9], the “Max MFI” value was determined as 105000 MFI. In experiment [4], the koff came to 0.000445 s⁻¹ and the kon amounted to 223000 M⁻¹ s⁻¹. Binding in experiment [6] was put at a Kd of 2 nM. Moreover, in [7], the “IC50, inhibition … (CellTiter-Glo)” value stood at 0.0382 µg/mL and the “IC50, inhibition of the catalytic function of recombinant human CD73 enzyme” value stood at 0.0363 µg/mL. Besides, in [8], the “EC50, reversal of the AMP inhibition of human T lymphocyte proliferation” value was 0.0247 µg/mL and the “IC50, inhibition … on MDA-MB-231 cells” value is 0.483 µg/mL.

B3: chimeric nanobody 4-D04 (Fc fusion)
VHH: QLQLVESGGGLVQPGGSLRLSCAASGFTLDYYNIGWFRQAPGKEREGVSCISSSEGSTYYADSVKGRFTISRDNAKNTVYLQMNSLKPEDTAVYYCAADRYYYCSLHVSQYDYWGQGTLVTVSS
notes: Human-alpaca chimeric antibody
On to B3, for which the “Max MFI” value in experiment [1] came to 220000 MFI. Also, in [2], the “Max MFI” value was 71300 MFI. In experiment [4], the koff is 0.000277 s⁻¹ and the kon was found to be 301000 M⁻¹ s⁻¹. For the same molecule, in [6], the Kd was 0.919 nM. Further, in [7], the “IC50, inhibition … (CellTiter-Glo)” value stood at 0.00563 µg/mL. In [8], the “EC50, reversal of the AMP inhibition of human T lymphocyte proliferation” value was 0.0025 µg/mL and the “IC50, inhibition … on MDA-MB-231 cells” value was 0.093 µg/mL.

B4: chimeric nanobody 4-B02 (Fc fusion)
VHH: EVQLVESGGGLVQPGGSLRLSCAASGFPLDYYSIGWFRQAPGKEREGVSCIGSSDGSTYYADSVKGRFTISRDNAENTVWLQMNSLKPEDTAVYYCAALKYYYCSGHEAIYDYWGQGTQVTVSG
notes: as for B3
Turning to B4, the “Max MFI” value in [1] was determined as 206000 MFI. Also, in [2], the “Max MFI” value is 73800 MFI. In [4], this molecule displayed a koff of 0.000209 s⁻¹ and a kon of 263000 M⁻¹ s⁻¹. In [6], binding was characterised by a dissociation constant (Kd) of 0.795 nM. Further, in experiment [7], the “IC50, inhibition … (CellTiter-Glo)” value stood at 0.00466 µg/mL. Besides, in [8], the “EC50, reversal of the AMP inhibition of human T lymphocyte proliferation” value worked out at 0.0012 µg/mL and the “IC50, inhibition … on MDA-MB-231 cells” value was 0.083 µg/mL.
